# Data: patent publication US20060058504A1, “Peptides capable of inducing attraction to the axonal growth and their use for treating neurodegenerative diseases” (Centre National de la Recherche Scientific (CNRS), priority 2002, published 2006)
# Target: T1, wild-type L1Fc chimeric protein (human, UniProt P32004 20-1120)
# T1 construct: Produced in COS-7 cells, purified on protein A-Sepharose; in the two-color assay it was held on anti-human IgG coated beads; also called soluble L1; wt; not shown: immunoglobulin Fc, human (cross-linked with anti-human Fc antibodies)
# Assay: two-color FACS bead aggregation, mutant L1Fc beads with wild-type L1Fc beads, mixed aggregates at 30 min
row,Binder,"homophilic binding, percent of wild-type levels"
1,"A426D mutant L1Fc chimera (Fc fusion, UniProt P32004 20-1120, looked up, not shown: immunoglobulin Fc, human) IQIPEEYEGHHVMEPPVITEQSPRRLVVFPTDDISLKCEASGKPEVQFRWTRDGVHFKPKEELGVTVYQSPHSGSFTITGNNSNFAQRFQGIYRCFASNKLGTAMSHEIRLMAEGAPKWPKETVKPVEVEEGESVVLPCNPPPSAEPLRIYWMNSKILHIKQDERVTMGQNGNLYFANVLTSDNHSDYICHAHFPGTRTIIQKEPIDLRVKATNSMIDRKPRLLFPTNSSSHLVALQGQPLVLECIAEGFPTPTIKWLRPSGPMPADRVTYQNHNKTLQLLKVGEEDDGEYRCLAENSLGSARHAYYVTVEAAPYWLHKPQSHLYGPGETARLDCQVQGRPQPEVTWRINGIPVEELAKDQKYRIQRGALILSNVQPSDTMVTQCEARNRHGLLLANAYIYVVQLPDKILTADNQTYMAVQGSTAYLLCKAFGAPVPSVQWLDEDGTTVLQDERFFPYANGTLGIRDLQANDTGRYFCLAANDQNNVTIMANLKVKDATQITQGPRSTIEKKGSRVTFTCQASFDPSLQPSITWRGDGRDLQELGDSDKYFIEDGRLVIHSLDYSDQGNYSCVASTELDVVESRAQLLVVGSPGPVPRLVLSDLHLLTQSQVRVSWSPAEDHNAPIEKYDIEFEDKEMAPEKWYSLGKVPGNQTSTTLKLSPYVHYTFRVTAINKYGPGEPSPVSETVVTPEAAPEKNPVDVKGEGNETTNMVITWKPLRWMDWNAPQVQYRVQWRPQGTRGPWQEQIVSDPFLVVSNTSTFVPYEIKVQAVNSQGKGPEPQVTIGYSGEDYPQAIPELEGIEILNSSAVLVKWRPVDLAQVKGHLRGYNVTYWREGSQRKHSKRHIHKDHVVVPANTTSVILSGLRPYSSYHLEVQAFNGRGSGPASEFTFSTPEGVPGHPEALHLECQSNTSLLLRWQPPLSHNGVLTGYVLSYHPLDEGGKGQLSFNLRDPELRTHNLTDLSPHLRYRFQLQATTKEGPGEAIVREGGTMALSGISDFGNISATAGENYSVVSWVPKEGQCNFRFHILFKALGEEKGGASLSPQYVSYNQSSYTQWDLQPDTDYEIHLFKERMFRHQMAVKTNGTGRVRLPPAGFATE",74.4 % of wild-type levels
2,"H210Q mutant L1Fc chimera (Fc fusion, UniProt P32004 20-1120, looked up, not shown: immunoglobulin Fc, human) IQIPEEYEGHHVMEPPVITEQSPRRLVVFPTDDISLKCEASGKPEVQFRWTRDGVHFKPKEELGVTVYQSPHSGSFTITGNNSNFAQRFQGIYRCFASNKLGTAMSHEIRLMAEGAPKWPKETVKPVEVEEGESVVLPCNPPPSAEPLRIYWMNSKILHIKQDERVTMGQNGNLYFANVLTSDNHSDYICQAHFPGTRTIIQKEPIDLRVKATNSMIDRKPRLLFPTNSSSHLVALQGQPLVLECIAEGFPTPTIKWLRPSGPMPADRVTYQNHNKTLQLLKVGEEDDGEYRCLAENSLGSARHAYYVTVEAAPYWLHKPQSHLYGPGETARLDCQVQGRPQPEVTWRINGIPVEELAKDQKYRIQRGALILSNVQPSDTMVTQCEARNRHGLLLANAYIYVVQLPAKILTADNQTYMAVQGSTAYLLCKAFGAPVPSVQWLDEDGTTVLQDERFFPYANGTLGIRDLQANDTGRYFCLAANDQNNVTIMANLKVKDATQITQGPRSTIEKKGSRVTFTCQASFDPSLQPSITWRGDGRDLQELGDSDKYFIEDGRLVIHSLDYSDQGNYSCVASTELDVVESRAQLLVVGSPGPVPRLVLSDLHLLTQSQVRVSWSPAEDHNAPIEKYDIEFEDKEMAPEKWYSLGKVPGNQTSTTLKLSPYVHYTFRVTAINKYGPGEPSPVSETVVTPEAAPEKNPVDVKGEGNETTNMVITWKPLRWMDWNAPQVQYRVQWRPQGTRGPWQEQIVSDPFLVVSNTSTFVPYEIKVQAVNSQGKGPEPQVTIGYSGEDYPQAIPELEGIEILNSSAVLVKWRPVDLAQVKGHLRGYNVTYWREGSQRKHSKRHIHKDHVVVPANTTSVILSGLRPYSSYHLEVQAFNGRGSGPASEFTFSTPEGVPGHPEALHLECQSNTSLLLRWQPPLSHNGVLTGYVLSYHPLDEGGKGQLSFNLRDPELRTHNLTDLSPHLRYRFQLQATTKEGPGEAIVREGGTMALSGISDFGNISATAGENYSVVSWVPKEGQCNFRFHILFKALGEEKGGASLSPQYVSYNQSSYTQWDLQPDTDYEIHLFKERMFRHQMAVKTNGTGRVRLPPAGFATE",90.5 % of wild-type levels
